Test results reported in PMC4192486, “The Importance of a Gatekeeper Residue on the Aggregation of Transthyretin” (The Journal of Biological Chemistry, 2014).

Molecular target: the molecule itself
Test: SEC; Superdex 75 on HPLC, absorbance at 280 nm; 100 μM peptide in buffer pH 5.0 (100 mM MES, 100 mM KCl) at 25 °C, aliquots at 0, 5, 10, 15 and 30 min of the aggregation reaction; soluble WT peptide at the same concentration as control

B1: TTR 26–57 peptide bearing the K35L substitution (peptide)
peptide: not shown
notes: transthyretin (TTR), human, residues 26-57 with K35L; also called K35L peptide; 26–57 K35L; source: synthetic peptide; bought: Genemed Synthesis
stoichiometry N: 10 to 15 units
